# B1: TPR t1 (parent)
# chain: GACCAAUCUGCCCUCAGAGCUCGAGAACAUCUUCGGAUGCAGAGGAGGCAGGCUUCGGUGGCGCGAUAGCGCCAACGUCCUCAACCUCCAAUGCAUCCCACCACAUGAUGAUGCCUGAAGAGCCUUGGUUUUUUG
# Variants of: B1
# Assay: polymerase ribozyme fitness, log enrichment relative to wild type (log ratio); higher = more active; in vitro selection for triplet polymerase activity
# Procedure, shortened: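 One round of in vitro selection, in triplicate, was applied to PCR-built, transcribed mutant libraries of each subunit of a heterodimeric triplet polymerase ribozyme. The steps were annealing with a biotinylated primer, partner subunit and triplets, incubation frozen at −7 °C, gel excision of extended constructs, streptavidin-bead capture and RT-PCR. Fitness is the logarithm, base 2, of genotype enrichment over wild-type enrichment from inverse-variance-weighted replicate averages of Illumina-sequenced inputs and outputs, keeping genotypes with ≥10 input reads and ≥1 read per output.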
row,Variant,polymerase ribozyme fitness (log ratio)
1,GACCAAUCUGCCCUCAGAGCUCGAGAACAUCUUCGGAUGCAGAGGAGGCAGGCUUAGGUGGCGCGAUAGCGCCAACGUCCUCAACCUCCAAUGCAUCCCACCACAUGAUGAAGCCUGAAGAGCCUUGGUUUUUUG,1.46
2,GACCAAUCUGCCCUCAGAGCUCGAGAACAUCUUCGGAUGCAGAGGAGGCAGGCUUGGGUGGCGCGAUAGCGCCAACGUCCUCAACCUCCAAUGCAUCCCACCACAUGAUGAUGCCUGAACAGCCUUGGUUUUUUG,0.755
3,GACCAAUCUGCCCUCAGAGCUCGAGAACAUCUUCGGAUGCAGAGGAGGCAGGCUUGGGUGGCGCGGUAGCGCCAACGUCCUCAACCUCCAAUGAAUCCCACCACAUGAUGAUGCCUGAAGAGCCUUGGUUUUUUG,-2.49
4,GACCAAUCUGCCCUCAGAGCUCGAGAACAUCUUCGGAUGCAGAGGAGGCAGGCUUGGGUGGCGCGAUAGCGCCAACGUCCUUAACCUCCACUGCAUCCCACCACAUGAUGAUGCCCGAAGAGCCUUGGUUUUUUG,-2.61
5,GACCAAUCUGCCCUCAGAGCUCGAGAACAUCUUCGGAUGCAGAGGAGGCAGGCUUGGGUGGCGCGAUAGCGCCAACGUCCUCAACCUCCAAUGCAUCCCACCACAUGAUGAUCCCUGAAGAGCCUUGGUUUUUUG,-1.92
6,GACCAAUCUGCCCUCAGAGCUCGAGAACAUCUUCGGAUGCAGAGGAGGCAGGCUUGGGUGGCGCGAUAGCGCCAACGUCCUCAACCUCGAAUGCAACCCACCACAUGAUGAUGCCUGAAGAGCCUUGGUUUUUUG,-2.31
7,GACCAAUCUGCCCUCAGAGCUCGAGAACAUCUUCGGAUGCAGAGGAGGCAGGCUUGGGUGGCGCGAUAGCGGCAACGUCCUCAACCUCCAAUGCAUCCCACCACAUGAUGAUGCAUGAAGAGCCUUGGUUUUUUG,-2.98
8,GACCAAUCUGCCCUCAGAGCUCGAGAACAUCUUCGGAUGCAGAGGAGGCAGGCUUAGGUGGCGCGAUAGCGCCAACGUCCUCAACCUCCAAUGCAGCCCACCACAUGAUGAUACCUGAAGAGCCUUGGUUUUUUG,-1.95
9,GACCAAUCUGCCCUCAGAGCUCGAGAACAUCUUCGGAUGCAGAGGAGGCAGGCUUGGGUGGCGCGAUAGCGCCUACGUCCUCAACAUCCAAUGCAUCCCACCACAUGAUGAUGCCUGAAGAGCCUUGGUUUUUUG,-2.4
10,GACCAAUCUGCCCUCAGAGCUCGAGAACAUCUUCGGAUGCAGAGGAGGCAGGCUUGAGUGCCGCGAUAGCGCCAACGUCCUCAACCUCCAAUGCAUCCCACCACAUGAUGAUGCCUGGAGAGCCUUGGUUUUUUG,-4.8
11,GACCAAUCUGCCCUCAGAGCUCGAGAACAUCUUCGGAUGCAGAGGAGGCAGGCUUGGGUGGCGCGAUAUCGCCAACGUCCACAACCUACAAUGCAUCCCUCCACAUGAUGAUGCCUGAAGAGCCUUGGUUUUUUG,-2.69
12,GACCAAUCUGCCCUCAGAGCUCGAGAACAUCUUCGGAUGCAGAGGAGGCAGGCUUGGGUGGCGCGAUAGCGCCAACGUCCUCAACCUCGCAUGCAUCCCACCACAUGAUGAUGCCUGAAGAGCCUUGGUUUUUUG,-3.29
13,GACCAAUCUGCCCUCAGAGCUCGAGAACAUCUUCGGAUGCAGAGGAGGCAGGCUUGGGUGGCGCGAUGGCGCAAACGUCCUCAACCUCCAAUGCAUCCCACCACAUGAUGGUGCCUGAAGAGCCUUGGUUUUUUU,-6.08
14,GACCAAUCUGCCCUCAGAGCUCGAGAACAUCUUCGGAUGCAGAGGAGGCAGGCUUGGGUGGCGCGAUAGCGCCAACGUCCUCAACCUCCAAUGCAUCCCACCACAUGAUGAUGGCUGAAGAGCCUUGGUUUUUUG,-3.74
15,GACCAAUCUGCCCUCAGAGCUCGAGAACAUCUUCGGAUGCAGAGGAGGCAGGCUUGGGUGGCGCGAUAGAGCCAACGUCCUCAACCUCCAAUGCAUCCCACCACAUGAUGAUGCCUGUAGAGCCUUGGUUUUUUG,-2.37
16,GACCAAUCUGCCCUCAGAGCUCGAGAACAUCUUCGGAUGCAGAGGAGGCAGGCUUAGGUGGCGCGAUAGCGCCAACGUCCUCAACCUCCAAUGCAUCCCACCACAAGAUGAUGCCUGAAGAGCCUUGGUUUUUUG,-0.695
17,GACCAAUCUGCCCUCAGAGCUCGAGAACAUCUUCGGAUGCAGAGGAGGCAGGCUUGGGUGGCGCGAUAGCGCCAGCGUCCUCAACCUCCAAUGCAUCCCACCACAUGACGAUGCCUGAAGAGCCUUGGUUUUUUG,-7.14
18,GACCAAUCUGCCCUCAGAGCUCGAGAACAUCUUCGGAUGCAGAGGAGGCAGGCUUGGGUGGCGCGAUAGCUCCAACGUCCUCAACCUCCAAUGCAUCCCACCACAUGAUGAUGCCUGAAGCGCCUUGGUUUUUUG,-2.41
19,GACCAAUCUGCCCUCAGAGCUCGAGAACAUCUUCGGAUGCAGAGGAGGCAGGCUUGGGUGGCGCGAUAGCGCCAACGUCCUCAACCUCCAAUGCAUCCAACCACAUGAUGAUGCCUGAAGAGCCUUGGUUUUUUG,-6.98
20,GACCAAUCUGCCCUCAGAGCUCGAGAACAUCUUCGGAUGCAGAGGAGGCAGGCUUGGGUGGCGCGAUAGCGCCAACGUCCUGAACCUCCAAUGCAUCCCACCACAUGAUGAUGCGUGAAGUGCCUUGGUUUUUUG,-0.801
21,GACCAAUCUGCCCUCAGAGCUCGAGAACAUCUUCGGAUGCAGAGGAGGCAGGCUUGGGUGGCGUGAUAGCGCCAACGUCCUCAACCUCCAAUGCAUCCCACCACAUGAUGAUGCCUGAAGAGCCUUGGUUUUUUG,-0.732

row,Variant,polymerase ribozyme fitness (log ratio)
1,GACCAAUCUGCCCUCAGAGCUCGAGAACAUCUUCGGAUGCAGAGGAGGCAGGCUUGGGUGGGGCGAUAGCGCCAACGUCCUCAACCUCCAAUGCAUCCCACCACAUGAUGAUGCCUGAAGAGCCUUGGUUUUUUG,-3.35
2,GACCAAUCUGCCCUCAGAGCUCGAGAACAUCUUCGGAUGCAGAGGAGGCAGGCUUGGGUGGCGCGAUAUCGCCAACGUCCUCAACCUCCAAUGCAUCCCACCACAUGAUGAUGCCUGAAGAGCCUUGGUUUUUUG,-0.682
3,GACCAAUCUGCCCUCAGAGCUCGAGAACAUCUUCGGAUGCAGAGGAGGCAGGCUUGGGGGGCGCGAUAGCGCCAACGUCCUCAACCUCCAAUGCAUACCACCACAUGAUGAUGCCUGAAGAGCCUUGGUUUUUUG,-5.51
4,GACCAAUCUGCCCUCAGAGCUCGAGAACAUCUUCGGAUGCAGAGGAGGCAGGCUUGGGUGGCGCGAUAGCGCCAACGUCCUCAACCUCCAAUGCAUCCCACCACAUGAUAAUGCCGGAAGAGCCUUGGUUUUUUG,-3.62
5,GACCAAUCUGCCCUCAGAGCUCGAGAACAUCUUCGGAUGCAGAGGAGGCAGGCUUGGGUGGUGUGAUAGCGCCAACGUCCUAAACCUCUAAUGCAUCCCACCACAUGAUGAUGCCUGAAGAGACUUGGUUUUUUG,-3.52
6,GACCAAUCUGCCCUCAGAGCUCGAGAACAUCUUCGGAUGCAGAGGAGGCAGGCUUGGUCGGCGCGAUAGCGCCAACGUCCUCAACCUCCAAUGCAUCCCACCACAUGAUGAUGCCUGAAGAGCCUUGGUUUUUUG,1.36
7,GACCAAUCUGCCCUCAGAGCUCGAGAACAUCUUCGGAUGCAGAGGAGGCAGGCUUGGGUGGCGCGAUAGCGCCUACGUCCUCAACCUCCAAUGCAUCCCACCACAUGAUGAUGCCUGAAGAGCCUUGGUUUUUUG,-0.327
8,GACCAAUCUGCCCUCAGAGCUCGAGAACAUCUUCGGAUGCAGAGGAGGCAGGCUUGGGUGGCGCGAUAGCGCCAACGUCCUCAACCUCCAAUGCAUCCCACAACAUGAUGAUGCCUGAAGAGCCUUGGUUUUUUG,-1.59
9,GACCAAUCUGCCCUCAGAGCUCGAGAACAUCUUCGGAUGCAGAGGAGGCAGGCUUGGGUGGCGUGAUAGCGCCAACGUCCUCAACCUCCAAUGCAUCCCACCACAUGAUGAUGCCUGAAGAGUCUUGGUUUUUUG,0.0926
10,GACCAAUCUGCCCUCAGAGCUCGAGAACAUCUUCGGAUGCAGAGGAGGCAGGCUUGGGUGGCGCGAUAGCGCCAACGUCAUCAACCUCCAAUGCAUCCCACCACAUGAUGAUGCCUGAAGAGCCUUGGUUUUUUG,-1.38
11,GACCAAUCUGCCCUCAGAGCUCGAGAACAUCUUCGGAUGCAGAGGAGGCAGGCUUGGGUGGCGCGAUAGCGCGAACGUCCUCAACCUCCAAUGCAUCCCACCACAUGAUGAUGCCUGAAGAGCCUUGGUUUUUUG,-2.66
12,GACCAAUCUGCCCUCAGAGCUCGAGAACAUCUUCGGAUGCAGAGGAGGCAGGCUUGGGUGGCGCGAUAGCGCCAACGUCCUCAACCUCCAAUGGAUCCCACCACAUGAUGAUGCCUGAAGAGCCUUGGUUUUUUG,-1.87
13,GACCAAUCUGCCCUCAGAGCUCGAGAACAUCUUCGGAUGCAGAGGAGGCAGGCUUGGGUGGCGCGAUAGCGCCAACGUCCUCCACCUCCAAUGCAUCCCAACACAUGAUGAUGCCUGAAGAGCGUUGGUUUUUUG,0.428
14,GACCAAUCUGCCCUCAGAGCUCGAGAACAUCUUCGGAUGCAGAGGAGGCAGGCUUGGGUGGCGCGAUAGCGCCAACGUCCUCAACCUCCAAUGCAUCCCACCACAUGAUGCUGCCUGAUGAGCCUUGGUUUUUUG,-1.72
15,GACCAAUCUGCCCUCAGAGCUCGAGAACAUCUUCGGAUGCAGAGGAGGCAGGCUUGGGUGGUGCGAUAGCGCCAACGUCCUCAACCUCCAAUGCAUCCCACCUCAUGAGGAUGCCUGAAGAGCCUUGGUUUUUUG,-6.92
16,GACCAAUCUGCCCUCAGAGCUCGAGAACAUCUUCGGAUGCAGAGGAGGCAGGCUUGGCUGGCGCGAUAGCGCCAACGUCCUCAACCUCCAAUGCAUCCCACCACAUGAUGAUGCCUGAAGAGCCUUGGUUUUUUG,0.394
17,GACCAAUCUGCCCUCAGAGCUCGAGAACAUCUUCGGAUGCAGAGGAGGCAGGCUUGGGUGGCGCGAUAGCGCCAACCUCCUCAACCUCCAAUGCAUCCCACCACAUGAUGAUGCCUGAAGAGCCUUGGUGUUUUG,-0.115
18,GACCAAUCUGCCCUCAGAGCUCGAGAACAUCUUCGGAUGCAGAGGAGGCAGGCUUGGGUGGCGCGAUAGCGCCAACGUCCUCAACCUCCAAUGGAUCCCACCACAUGAUGAAGCCUGAAGAGCCUUGGUUUUUUG,-0.000426
19,GACCAAUCUGCCCUCAGAGCUCGAGAACAUCUUCGGAUGCAGAGGAGGCAGGCUUGGGUGGCGCGAUAGCGCCAACGUCCUCAGCCUCCAAUGCAUCCCACCACAUGAUGAUGCCUGAAAAGCCUUGGUUUUUUG,-0.771
20,GACCAAUCUGCCCUCAGAGCUCGAGAACAUCUUCGGAUGCAGAGGAGGCAGGCUUGGGUGGCGCGAUAGCGCCAACGUCCUCAACCUUCAAUGAAUCCCACCACAUGAUUAUGCCUGAAGAGCCUUGGUUUUUUG,-4.78
21,GACCAAUCUGCCCUCAGAGCUCGAGAACAUCUUCGGAUGCAGAGGAGGCAGGCUUGGGUGGCGCGAUAGCGCCAACGUUCUCAACCUCCAAUGCAUCCCACCACAUGAUGAUGCCUGAAGAGCCUUGGUUUUUUG,-0.342

# — the RNAGym collection of RNA variant scans (doi:10.1073/pnas.2313332121)
